# Measured values from the DeepSol protein solubility set.
# Test: soluble on expression in E. coli; label from the status in PepcDB or PDB records
row,Sequence,soluble on expression in E. coli
1,MAHHHHHHMEKDDHYKTSEKYEICTSFENIGIDEGLLRGIYAYGFEKPSAIQQRGIKPILNGRDVILQSQSGTGKTCVFAVGALNCVNRNLNETQVIILSPTRELAEQTQKVCLALADYIHVTIYCCIGGKKMSDDIKALNNGVHVISGTPGRIYHMLNLRHLKCKYIKQLVIDEADEMLNKGFKEQVYDIYRFLSPNTQIILSSATLPQEVLEITNKFMHKPVKILVKRDELTLEGIKQFFVSIEKEQWKYETLADLYESLTITQAVVFCNTQMKVDWLTKKMLESNFTVCKMHAGMSQSERDDIMLKFRQCKFRVLISTDIWGRGLDVQEVSLVVNYDLPNSRESYIHRIGRSGRFGRKGVAINFVKNDDIKILRDIEQYYSTQIDEMPMNITELL,not soluble
2,KVGISMFNILQSTQLSSNTFDFWLEAPRIATHAQAGQFVILRIDEKGERIPLTIAETNPQAGSIRIIFQVIGKTTAALSQLKTSDSLLDITGPLGMPTEVKQYGTVMVVGGGVGIAAIYPIIKALKEAGNRVITILGARTAELVLLQEECRRYSDELIITTDDGSLGKKGLVTEAMEEVIARESVACSWAIGPSIMMKFCTLTAEKHQLPIYVSLNPIMIDGTGMCGGCRVTVDGTMKFACVDGPEFKGNEVNWDEFINRMKQYQEEEAVCFTDRLKEQVEKNG,not soluble
3,MVKAEFGLYSATGGRVLVWLEQIHVQPLELLSTDERIRRQSIGVTILWNNILVMIQCDGNILPQKHQGFYRFHCEFQQRSLHTAEHLMSFMDEGS,not soluble
4,MPFSISGRKGSEMMAKLDELKQKLTAKQIQAAYLLVENELMESNNEEKRTQDEMANELGINRTTLWEWRTKNQDFIAFKSEVADSFLAEKREQVYSKLMQLILGPQPSVKAMQLYMQRFGLLTDKKVIEGDLGNATRTNAEIEEQLQKLKKLTGE,soluble
5,MTEMELKLIKIDTSHYFEKKPGLGERVDYAGRCFYNKFQRVNAMLTSSLIQKHLKREIEIAHNLILRNDKVENIVFDYNGRNPERFYHKAQLLLREEGFMNFTAYNTKTPGHLHLYVHKGHTELGEGERLVKTLSMKLAQGLPKEWKVFPSNEWPKEFNILALPYEVFAKERGSSWAKHL,soluble
6,MSLSVSEQLFPLTIIHLNDFHARFEETNTVSTRCKPDEGERCIGGYARVVSRVKSLQREYADRNPIYLNAGDNFQGTLWYSLLRWNVTAHFLNLLPADVMTLGNHEFEHGIGGLVPFLDVIDSPVVVTNIDDREEPTLQGKYTKSVVLERGGRKIGVVGVIHHLTNTMGMTERLRFLDEVEQLRMEIGRLKEEGVQHIVVLSHCGLEIDRIIARELPDVDVVVGGHSHTFLYNGTADGFPDDPEDTYPIVVEHPEGRTTLIVQAASYAKYVGRITLYFDEEGNIREWEGNPEFLDSSVPQDEEVLAQLAPWREQVNVQANREGHHHHHH,soluble
7,MSLENDFPLKGKTVLVTRNKAQAASFQQKVEALGGKAVLTSLITFRRALPNDVAEQVREDLAAPGWLVFTSVNGADFFFSYLKENQLILPAHKKIAAVGEKTARRLKMHNVSVDVMPQEYIAEQLADALKQHAEPGETITVMKGNLSRDVIKQELVPLGFEVKEWVLYETIPDEEGIEALKDAAGQYSFDYVTFTSSSTVHTFMHVLGEELKKWKANGTACISIGPLTNDALLTYGITSHTPDTFTIDGMLELMCSMSREEERIEGHHHHHH,soluble
8,MATGQDRVVALVDMDCFFVQVEQRQNPHLRNKPCAVVQYKSWKGGGIIAVSYEARAFGVTRSMWADDAKKLCPDLLLAQVRESRGKANLTKYREASVEVMEIMSRFAVIERASIDEAYVDLTSAVQERLQKLQGQPISADLLPSTYIEGLPQGPTTAEETVQKEGMRKQGLFQWLDSLQIDNLTSPDLQLTVGAVIVEEMRAAIERETGFQCSAGISHNKVLAKLACGLNKPNRQTLVSHGSVPQLFSQMPIRKIRSLGGKLGASVIEILGIEYMGELTQFTESQLQSHFGEKNGSWLYAMCRGIEHDPVKPRQLPKTIGCSKNFPGKTALATREQVQWWLLQLAQELEERLTKDRNDNDRVATQLVVSIRVQGDKRLSSLRRCCALTRYDAHKMSHDAFTVIKNCNTSGIQTEWSPPLTMLFLCATKFSASAPSSSTDITSFLSSDPSSLPKVPVTSSEAKTQGSGPAVTATKKATTSLESFFQKAAERQKVKEASLSSLTAPTQAPMSNSPSKPSLPFQTSQSTGTEPFFKQKSLLLKQKQLNNSSVSSPQQNPWSNCKALPNSLPTEYPGCVPVCEGVSKLEESSKATPAEMDLAHNSQSMHASSASKSVLEVTQKATPNPSLLAAEDQVPCEKCGSLVPVWDMPEHMDYHFALELQKSFLQPHSSNPQVVSAVSHQGKRNPKSPLACTNKRPRPEGMQTLESFFKPLTH,soluble
9,GPHMLGILNKMFDPTKRTLNRYEKIANDIDAIRGDYENLSDDALKHKTIEFKERLEKGATTDDLLVEAFAVVREASRRVTGMFPFKVQLMGGVALHDGNIAEMKTGEGKTLTSTLPVYLNALTGKGVHVVTVNEYLASRDAEQMGKIFEFLGLTVGLNLNSMSKDEKREAYAADITYSTNNELGFDYLRDNMVLYKEQMVQRPLHFAVIDEVDSILIDEARTPLIISGQAAKSTKLYVQANAFVRTLKAEKDYTYDIKTKAVQLTEEGMTKAEKAFGIDNLFDVKHVALNHHINQALKAHVAMQKDVDYVVEDGQVVIVDSFTGRLMKGRRYSEGLHQAIEAKEGLEIQNESMTLATITFQNYFRMYEKLAGMTGTAKTEEEEFRNIYNMQVVTIPTNRPVVRDDRPDLIYRTMEGKFKAVAEDVAQRYMTGQPVLVGTVAVETSELISKLLKNKGIPHQVLNAKNHEREAQIIEEAGQKGAVTIATNMAGRGTDIKLGEGVKELGGLAVVGTERHESRRIDNQLRGRSGRQGDPGITQFYLSMEDELMRRFGAERTMAMLDRFGMDDSTPIQSKMVSRAVESSQKRVEGNNFDSRKQLLQYDDVLRQQREVIYKQRFEVIDSENLREIVENMIKSSLERAIAAYTPREELPEEWKLDGLVDLINTTYLDEGALEKSDIFGKEPDEMLELIMDRIITKYNEKEEQFGKEQMREFEKVIVLRAVDSKWMDHIDAMDQLRQGIHLRAYAQTNPLREYQMEGFAMFEHMIESIEDEVAKFVMKAEIENNLEREEVVQGQTTAHQPQEGDDNKKAKKAPVRKVVDIGRNAPCHCGSGKKYKNCCGRTE,soluble
10,PPGPCLPPRLQGRPKAKEIQLRWGPPLVDGGSPISCYSVEMSPIEKDEPREVYQGSEVECTVSSLLPGKTYSFRLRAANKMGFGPFSEKCDITTAPG,soluble
11,MASSLNEDPEGSRITYVKGDLFACPKTDSLAHCISEDCRMGAGIAVLFKKKFGGVQELLNQQKKSGEVAVLKRDGRYIYYLITKKRASHKPTYENLQKSLEAMKSHCLKNGVTDLSMPRIGCGLDRLQWENVSAMIEEVFEATDIKITVYTL,soluble
12,MSLTEIGIVAVGGYNEMGRNMTAIIIGEDIVILDMGLRLDRVQIHEDVEIDKMHSLELIEMGAIPDDTIMKEINGTVRAIVCTHGHLDHIGAIPKLAHRYNAPILATPYTAAIIRQQIESERKFEVCNRVIPLQAGGTYQVTEDISIEFIRVQHSIIDCVLAAVHTPAGAVLYACDFKLDRTPTMGEAPDFDRFKSLGKEGVIAMITESTNAGRSGKTPSEQIAKDMVRDVLLGTEESGVGMIVTTFASHIARLKAIIEAAEEMGRIPVLMGRSMERYVGAARDIGYLDLPSNVEIYGTRKDVDRAFKRIMQEGKNKYLPIVTGHQGEPGSILVRVANGETPYTIDPGDRIIFSANVIPSPMTQANRYALETKLRMKGGRIYDDVHVSGHAYREDHWELLRMVNPEHVIPAHGDMEMHGHYIEMAEDAGYVLGDTVHLLRNGEVLYIEEEGHHHHHH,soluble
13,MSIPINFNNLKYLLNDMRNKNRIIEAFPFNYNQRQYAVILTRYKPDEPRPDDYAQAKLEFFNLNSENSIFAYADFYEVHFKSATDFINFFKINVQAGAAKIREIFQSFSNLFADFIPTQTKKDLDIIYKKIVATRLEPNSPNTIYCYDVRRNGKDKAGKPNRRSVENSEKAKILRPELYEKFKADSNYSFFFSDNPSDEKTDAEIIREVTNRQ,not soluble
14,MSLNKKIIFFDIDGTLLVHNGKESTIPYSTKEALKKLKEKGHNLFICSGRPIRFAIQEFQEMVDGYICCNGTYIVYNGKCIYNKLIDKDTLKYLIKEFCKLGISASFSGAYNGYSYNMSSEKIHQMNRFYKTENPYILDNWNIEEIEANNVDVFFKNNEHMEKCIKYLEHKLIFNTHKPYLSADVSFKNWDKSKGIEYLVKYMKRDMKDTMAFGDGKNDITMLKTVNIGIAMGNAVDEVKNKADMVTDSAADDGIYNALNKLHLIEGHHHHHH,soluble
15,MVNKKRQVRFEFFQVNGKAQEGEKIVKGLFDLYPLADRINSISNYTDRDVILFGEKVRMDRFFEVSSSPELYAMHFTRLRNDKPAYVELNNEVLKEIPLNPGEYIAEDISCLYDRELSVLMVQRNIHSLSPSGIEDYFTEMSDDLVEIELLPVVNKEIISKALANEKFRKLELRAGSMNTTSDRSGLRKVLGPFMELFEKFEGTNFVIEISSGRSKKDLSEDQMKEVITAIEQDKSLFSSAIVSAKKSKEVPVEKYDLINGKLYVYRSFDLPDGAFLKSDSVIDNIKNYYFHPNEGGYRKQIIDAVK,not soluble
16,MVFTPLDVRTIVSLPSCPKCNSEYTYEDGSLLICPECAHEWSADAGSADASDDVKVIKDSTGNVLQDGDTITVIKDLKVKGSSLVVKVGTKVKNIRLVDGDHDIDCKIDGIGAMKLKSEFVRKV,not soluble
17,GMMTDEARAKLAAIPMLAGYTGPLERLGGLTNLVFRAGDLCLRIPGKGTEEYINRANEAVAAREAAKAGVSPEVLHVDPATGVMVTRYIAGAQTMSPEKFKTRPGSPARAGEAFRKLHGSGAVFPFRFELFAMIDDYLKVLSTKNVTLPAGYHDVVREAGGVRSALAAHPLPLAACHCDPLCENFLDTGERMWIVDWEYSGMNDPLWDLGDLSVEGKFNANQDEELMRAYFGGEARPAERGRVVIYKAMCDLLWTLWGLIQLANDNPVDDFRAYADGRFARCKALMETPEFSRHLAAVRMG,soluble
18,MSLEQASVTNDFSENKQGCIQHPWQGKKVGYIGDSITDPNCYGDNIKKYWDFLKEWLGITPFVYGISGRQWDDVPRQAEKLKKEHGGEVDAILVFMGTNDYNSSVPIGEWFTEQEEQVLSAHGEMKKMVTRKKRTPVMTQDTYRGRINIGITQLKKLFPDKQIVLLTPLHRSLANFGDKNVQPDESYQNGCGEYIDAYVQAIKEAGNIWGIPVIDFNAVTGMNPMVEEQLIYFYDAGYDRLHPDTKGQERMARTLMYQLLALPVAFEGHHHHHH,soluble
19,MSAFKKSLLVAGVAMILSNNVFADEGHGIVKFKGEVISAPCSIKPGDEDLTVNLGEVADTVLKSDQKSLAEPFTIHLQDCMLSQGGTTYSKAKVTFTTANTMTGQSDLLKNTKETEIGGATGVGVRILDSQSGEVTLGTPVVITFNNTNSYQELNFKARMESPSKDATPGNVYAQADYKIAYE,soluble
20,MSITYSAISFSGFSPKSVPFAIHSVTRRQFLNPNTFYRFGFSPSLQGSSIEFSLQLNSRVVLSKERRSLPLVVRNDRPQNEDLPKQYTRREKKPFPVPIVDLRRAARERVKNNKDKPKRPLPPPKNGMVVKSLVPLAYKVYNARIRLINNLHRLMKVVRVNACGWCNEIHVGPYGHPFKSCKGPNTSQRKGLHEWTNSVIEDVIVPLEAYHLFDRLGKRIRHDERFSIPRVPAVVELCIQGGVEIPEFPAKRRRKPIIRIGKSEFVDADETELPDPEPQPPPVPLLTELPVSEITPPSSEEETVSLAEETLQAWEEMRAGAKKLMRMYRVRVCGYCPEVHVGPTGHKAQNCGAFKHQQRNGQHGWQSAVLDDLIPPRYVWHVPDVNGPPMQRELRSFYGQAPAVVEICAQAGAVVPEHYRATMRLEVGIPSSVKEAEMVV,soluble
